B1: GST-tagged PP2C domain of PHLPP2 (protein)
chain: TSTFWSHGLAEMAGQRNKLCVSALAMDSFAEGVGAVYGMFDGDRNEELPRLLQCTMADVLLEEVQQSTNDTVFMANTFLVSHRKLGMAGQKLGSSALLCYIRPDTADPASSFSLTVANVGTCQAVLCRGGKPVPLSKVFSLEQDPEEAQRVKDQKAIITEDNKVNGVTCCTRMLGCTYLYPWILPKPHISSTPLTIQDELLILGNKALWEHLSYTEAVNAVRHVQDPLAAAKKLCTLAQSYGCQDNVGAMV
B2: HA-tagged full length PHLPP2 (protein)
chain: MGYPYDVPDYAMKRNGSRNCLNRRSRFGSRERDWLREDVKRGCVYLYGADTTTATTTTTTSSSSSSSSSSSDLHLVLCTVETPASEICAGEGRESLYLQLHGDLVRRLEPTERPLQIVYDYLSRLGFDDPVRIQEEATNPDLGCMIRFYGEKPCHMDRLDRILLSGIYNVRKGKTQLHKWAERLVVLCGTCLIVSSVKDCQTGKMHILPLVGGKIEEVKRRQYSLAFSSAGAQAQTYHVSFETLAEYQRWQRQASKVVSQRISTVDLSCYSLEEVPEHLFYSQDITYLNLRHNFMQLERPGGLDTLYKFSQLKGLNLSHNKLGLFPILLCEISTLTELNLSCNGFHDLPSQIGNLLNLQTLCLDGNFLTTLPEELGNLQQLSSLGISFNNFSQIPEVYEKLTMLDRVVMAGNCLEVLNLGVLNRMNHIKHVDLRMNHLKTMVIENLEGNKHITHVDLRDNRLTDLDLSSLCSLEQLHCGRNQLRELTLSGFSLRTLYASSNRLTAVNVYPVPSLLTFLDLSRNLLECVPDWACEAKKIEVLDVSYNLLTEVPVRILSSLSLRKLMLGHNHVQNLPTLVEHIPLEVLDLQHNALTRLPDTLFSKALNLRYLNASANSLESLPSACTGEESLSMLQLLYLTNNLLTDQCIPVLVGHLHLRILHLANNQLQTFPASKLNKLEQLEELNLSGNKLKTIPTTIANCKRLHTLVAHSNNISIFPEILQLPQIQFVDLSCNDLTEILIPEALPATLQDLDLTGNTNLVLEHKTLDIFSHITTLKIDQKPLPTTDSTVTSTFWSHGLAEMAGQRNKLCVSALAMDSFAEGVGAVYGMFDGDRNEELPRLLQCTMADVLLEEVQQSTNDTVFMANTFLVSHRKLGMAGQKLGSSALLCYIRPDTADPASSFSLTVANVGTCQAVLCRGGKPVPLSKVFSLEQDPEEAQRVKDQKAIITEDNKVNGVTCCTRMLGCTYLYPWILPKPHISSTPLTIQDELLILGNKALWEHLSYTEAVNAVRHVQDPLAAAKKLCTLAQSYGCQDNVGAMVVYLNIGEEGCTCEMNGLTLPGPVGFASTTTIKDAPKPATPSSSSGIASEFSSEMSTSEVSSEVGSTASDEHNAGGLDTALLPRPERRCSLHPTPTSGLFQRQPSSATFSSNQSDNGLDSDDDQPVEGVITNGSKVEVEVDIHCCRGRDLENSPPLIESSPTLCSEEHARGSCFGIRRQNSVNSGMLLPMSKDRMELQKSPSTSCLYGKKLSNGSIVPLEDSLNLIEVATEVPKRKTGYFAAPTQMEPEDQFVVPHDLEEEVKEQMKQHQDSRLEPEPHEEDRTEPPEEFDTAL

Target: 6His-tagged human Akt1, P31749
Sequence (P31749 whole entry, looked up): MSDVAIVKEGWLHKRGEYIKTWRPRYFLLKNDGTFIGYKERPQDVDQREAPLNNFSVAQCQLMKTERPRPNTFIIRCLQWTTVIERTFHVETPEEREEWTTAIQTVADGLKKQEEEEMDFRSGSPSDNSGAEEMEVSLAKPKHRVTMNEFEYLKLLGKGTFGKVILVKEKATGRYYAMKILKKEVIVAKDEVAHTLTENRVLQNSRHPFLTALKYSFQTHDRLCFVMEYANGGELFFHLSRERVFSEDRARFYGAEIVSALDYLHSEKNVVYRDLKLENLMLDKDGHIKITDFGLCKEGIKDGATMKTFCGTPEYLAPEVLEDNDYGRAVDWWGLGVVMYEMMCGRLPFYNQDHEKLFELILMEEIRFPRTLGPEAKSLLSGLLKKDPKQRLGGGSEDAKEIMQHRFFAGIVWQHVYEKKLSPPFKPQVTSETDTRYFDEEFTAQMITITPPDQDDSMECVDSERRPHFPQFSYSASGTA

Protein | dephosphorylation of Ser 473 in 5 minutes (phospho-specific antibody) | dephosphorylation of Thr 308 in 5 minutes (phospho-specific antibody) | dephosphorylation of Ser 473 by immunoprecipitated enzyme | dephosphorylation of Thr 308 by immunoprecipitated enzyme
B1 | 82+6% (Ser 473) | 70+2% (Thr 308) |  | 
B2 |  |  | 60+4% dephosphorylation of Ser 473 | no significant effect on Thr 308 phosphorylation
